The values that follow come from the supplement of paper PMC10567573.

The labels stand for the following.
B1: PCDHGA10 (parent)
chain: FGIEIEVTDINDNAPKFQAENLDV
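Also: lentivirally expressed fusions sorted by FACS into six bins by GFP to DsRed ratio, PSI derived from sequencing read proportions per bin multiplied by bin number.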

The variants in the series derive from B1. Put plainly: protein stability index of a GFP-peptide fusion (GPS, HEK-293T) (PSI 1-6); higher = more stable. The settings on record: c terminus: a fixed tail appended.
In the case of FGIEIEVTYINDNAPKFQAENLDV, the protein stability index was found to be 3.18. The figure for FGIEIEVTFINDNAPKFQAENLDV is 2.69. The figure for FGIEIEVTCINDNAPKFQAENLDV is 1.95; for FGIEIEVTGINDNAPKFQAENLDV it is 2.15; for FGIEIEVTAINDNAPKFQAENLDV it is 1.98. With FGIEIEVTNINDNAPKFQAENLDV the figure was 2.73; with FGIEIEVTHINDNAPKFQAENLDV, 1.81; with FGIEIEVTQINDNAPKFQAENLDV, 2.15. Consider FGIEIEVTMINDNAPKFQAENLDV, for which the protein stability index is 1.96. In the case of FGIFIEVTDINDNAPKFQAENLDV, the protein stability index was found to be 1.66.

Turning to FGISIEVTDINDNAPKFQAENLDV, the protein stability index was 2.5. The figure for FGIRIEVTDINDNAPKFQAENLDV is 2.18; for FGIVIEVTDINDNAPKFQAENLDV it is 2.24. The figure for FGIIIEVTDINDNAPKFQAENLDV is 1.75. The figure for FGICIEVTDINDNAPKFQAENLDV is 2.6; for FGIAIEVTDINDNAPKFQAENLDV it is 2.46.

In the case of FGITIEVTDINDNAPKFQAENLDV, the protein stability index turned out to be 2.12. With FGIQIEVTDINDNAPKFQAENLDV the figure was 2.47. With FGIWIEVTDINDNAPKFQAENLDV the figure was 2.5; with FGIGIEVTDINDNAPKFQAENLDV, 3.42; with FGIYIEVTDINDNAPKFQAENLDV, 1.73. The figure for FGIKIEVTDINDNAPKFQAENLDV is 2.11; for FGIHIEVTDINDNAPKFQAENLDV it is 2.2. As to FGIMIEVTDINDNAPKFQAENLDV, the protein stability index came out at 1.73. The figure for FGILIEVTDINDNAPKFQAENLDV is 2.28; for FGINIEVTDINDNAPKFQAENLDV it is 3.34; for FGIDIEVTDINDNAPKFQAENLDV it is 3.44. With FGIPIEVTDINDNAPKFQAENLDV the figure was 4.33; with FGIEIEVTDICDNAPKFQAENLDV, 2.28; with FGIEIEVTDIGDNAPKFQAENLDV, 2.66. With FGIEIEVTDIADNAPKFQAENLDV the figure was 2.88; with FGIEIEVTDIDDNAPKFQAENLDV, 3.54; with FGIEIEVTDIEDNAPKFQAENLDV, 2.94.

Turning to FGIEIEVTDIIDNAPKFQAENLDV, the protein stability index came to 2.04. The figure for FGIEIEVTDIHDNAPKFQAENLDV is 2.41; for FGIEIEVTDIKDNAPKFQAENLDV it is 2.99.

As for FGIEIEVTDILDNAPKFQAENLDV, the protein stability index was determined as 1.77. Take FGIEIEVTDIFDNAPKFQAENLDV: the protein stability index turned out to be 1.33. Consider FGIEVEVTDINDNAPKFQAENLDV, for which the protein stability index was determined as 3.48. The figure for FGIEQEVTDINDNAPKFQAENLDV is 4.71. On to FGIEGEVTDINDNAPKFQAENLDV, for which the protein stability index was determined as 5.02. As for FGIEKEVTDINDNAPKFQAENLDV, the protein stability index came out at 4.92. The figure for FGIEPEVTDINDNAPKFQAENLDV is 5.13; for FGIEEEVTDINDNAPKFQAENLDV it is 5.17; for FGIEREVTDINDNAPKFQAENLDV it is 4.79. As for FGIELEVTDINDNAPKFQAENLDV, the protein stability index came to 3.94. FGIETEVTDINDNAPKFQAENLDV: the protein stability index came out at 5.08. With FGIEFEVTDINDNAPKFQAENLDV the figure was 3.49; with FGIEYEVTDINDNAPKFQAENLDV, 3.85; with FGIEWEVTDINDNAPKFQAENLDV, 3.05. FGIESEVTDINDNAPKFQAENLDV: the protein stability index amounted to 5.39.

As for FGIEHEVTDINDNAPKFQAENLDV, the protein stability index was 4.91. FGIEMEVTDINDNAPKFQAENLDV: the protein stability index was 3.86. With FGIEAEVTDINDNAPKFQAENLDV the figure was 4.42. With FGIECEVTDINDNAPKFQAENLDV, the protein stability index came out at 4.28. Take FGIENEVTDINDNAPKFQAENLDV: the protein stability index worked out at 5.05. On to FGIEDEVTDINDNAPKFQAENLDV, for which the protein stability index is 4.58. With FGNEIEVTDINDNAPKFQAENLDV the figure was 4.68; with FGTEIEVTDINDNAPKFQAENLDV, 4.65. With FGLEIEVTDINDNAPKFQAENLDV the figure was 4.08; with FGGEIEVTDINDNAPKFQAENLDV, 4.73; with FGEEIEVTDINDNAPKFQAENLDV, 5.11. With FGWEIEVTDINDNAPKFQAENLDV the figure was 3.62. Turning to FGPEIEVTDINDNAPKFQAENLDV, the protein stability index was found to be 4.96. The figure for FGCEIEVTDINDNAPKFQAENLDV is 4.43; for FGREIEVTDINDNAPKFQAENLDV it is 4.52; for FGAEIEVTDINDNAPKFQAENLDV it is 4.52. Take FGHEIEVTDINDNAPKFQAENLDV: the protein stability index worked out at 4.88. With FGSEIEVTDINDNAPKFQAENLDV the figure was 5.2. The figure for FGMEIEVTDINDNAPKFQAENLDV is 3.96; for FGKEIEVTDINDNAPKFQAENLDV it is 4.73; for FGVEIEVTDINDNAPKFQAENLDV it is 3.65. For FGFEIEVTDINDNAPKFQAENLDV, the protein stability index was determined as 2.71. Regarding FGQEIEVTDINDNAPKFQAENLDV, the protein stability index amounted to 4.79.

Take FGYEIEVTDINDNAPKFQAENLDV: the protein stability index was 3.84. Take FGDEIEVTDINDNAPKFQAENLDV: the protein stability index was 4.76. The figure for FEIEIEVTDINDNAPKFQAENLDV is 1.88; for FIIEIEVTDINDNAPKFQAENLDV it is 2.57. FYIEIEVTDINDNAPKFQAENLDV: the protein stability index was determined as 3.

As for FDIEIEVTDINDNAPKFQAENLDV, the protein stability index was determined as 2.72. With FPIEIEVTDINDNAPKFQAENLDV the figure was 4.63; with FKIEIEVTDINDNAPKFQAENLDV, 1.52. The figure for FNIEIEVTDINDNAPKFQAENLDV is 1.9; for FLIEIEVTDINDNAPKFQAENLDV it is 2.17; for FTIEIEVTDINDNAPKFQAENLDV it is 1.78. The figure for FMIEIEVTDINDNAPKFQAENLDV is 1.9. Consider FFIEIEVTDINDNAPKFQAENLDV, for which the protein stability index turned out to be 1.86. With FSIEIEVTDINDNAPKFQAENLDV the figure was 1.92. For the variant FCIEIEVTDINDNAPKFQAENLDV, the protein stability index was 2.

With FAIEIEVTDINDNAPKFQAENLDV, the protein stability index was determined as 2.02.

On to FHIEIEVTDINDNAPKFQAENLDV, for which the protein stability index amounted to 2.18. Regarding FVIEIEVTDINDNAPKFQAENLDV, the protein stability index worked out at 1.64. The figure for FQIEIEVTDINDNAPKFQAENLDV is 2.09; for FRIEIEVTDINDNAPKFQAENLDV it is 1.49.
